This note sets out measurements from article PMC11780864, “RNA G-quadruplex structure-based PROTACs for targeted DHX36 protein degradation and gene activity modulation in mammalian cells”.

The target of this data set is T1, DHX36 (RHAU) (UniProt Q9H2U1 1-1008).
T1 sequence: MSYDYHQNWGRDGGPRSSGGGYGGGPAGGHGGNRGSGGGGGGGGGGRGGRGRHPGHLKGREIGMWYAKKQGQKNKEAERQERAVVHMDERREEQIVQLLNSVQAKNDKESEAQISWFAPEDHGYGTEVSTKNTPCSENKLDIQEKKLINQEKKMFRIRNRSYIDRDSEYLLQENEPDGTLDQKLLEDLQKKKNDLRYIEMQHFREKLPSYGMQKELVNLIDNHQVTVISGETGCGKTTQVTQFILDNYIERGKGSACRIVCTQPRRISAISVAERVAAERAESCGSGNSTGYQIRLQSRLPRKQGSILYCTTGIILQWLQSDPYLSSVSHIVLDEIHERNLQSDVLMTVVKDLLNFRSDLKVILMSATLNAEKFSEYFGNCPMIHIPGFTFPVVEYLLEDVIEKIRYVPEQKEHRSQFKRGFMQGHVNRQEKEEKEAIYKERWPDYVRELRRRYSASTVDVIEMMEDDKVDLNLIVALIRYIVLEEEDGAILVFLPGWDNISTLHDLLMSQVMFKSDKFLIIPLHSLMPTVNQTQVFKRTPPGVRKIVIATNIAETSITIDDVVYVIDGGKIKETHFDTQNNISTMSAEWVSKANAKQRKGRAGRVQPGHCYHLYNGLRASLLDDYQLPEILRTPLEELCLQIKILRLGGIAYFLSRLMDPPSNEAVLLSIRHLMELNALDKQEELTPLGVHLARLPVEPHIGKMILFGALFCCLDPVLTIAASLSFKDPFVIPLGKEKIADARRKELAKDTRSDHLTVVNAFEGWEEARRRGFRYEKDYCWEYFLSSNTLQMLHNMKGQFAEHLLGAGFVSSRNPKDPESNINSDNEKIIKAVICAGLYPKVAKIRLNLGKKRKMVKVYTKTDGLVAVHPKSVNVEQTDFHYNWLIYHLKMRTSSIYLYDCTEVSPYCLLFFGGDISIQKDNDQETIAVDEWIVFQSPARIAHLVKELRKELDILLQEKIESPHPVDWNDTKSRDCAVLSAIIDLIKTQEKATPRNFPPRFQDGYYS
In words: MST; EMSA and MST: 25 mM Tris-HCl pH 7.5, 150 mM KCl, 1 mM MgCl2, 37 C 30 min; 30 nM (EMSA) or 40 nM (MST) FAM-oligo; EMSA gel 10% native PAGE, 0.5x TBE, 4 C. To be noted: protein: recombinant; for Kd: G4. (Mobility shift assays separate free from complexed probe on a gel.)

For orientation: Kd means a measure of binding affinity in units of concentration. TTGGGTGGGTGGGTGGGT (structured_DNA, 5'-hexynyl clicked to AHPC-PEG2) [FAM_dG4_A (T95-2T)]: the Kd (label: 3'-FAM) was 303 ± 55 nM.
GGGUUGCGGAGGGUGGGCCU (structured_RNA, 5'-hexynyl clicked to AHPC-PEG2 (VHL ligand)) [FAM_rG4_A_PEG2 (FAM_rG4_A)]: the Kd (label: 3'-FAM) came out at 79.7 ± 17.3 nM.
As for GAGCCGGCGGUGAGAGCGGAGUGAGUCGAACGAAG (ssRNA) [FAM_Gnai2 rG4 Mut], for the setting “label: 5'-FAM, non-G4”, the binding result is on record as “no binding”.
Consider CGGGGCGGGUGGGGAGGGGU (structured_RNA, printed with T although called rG4) [FAM_APP rG4 WT], for which the Kd (label: 5'-FAM) was 19.7 ± 2.3 nM.
GGGCCGGCGGUGGGAGCGGAGUGGGUCGGGCGGGG (structured_RNA) [FAM_Gnai2 rG4 WT]: the Kd (label: 5'-FAM) was found to be 37.9 ± 3.6 nM.
